Test results as given in publication PMC3714108.
Where two headings read alike, the source gives them in different places.

B1: attSCC68 (dsDNA)
DNA 1: TTATTTTTTCAAAAACCGCATCATTAACTGATAAGCAGAAGCTTATCATAAATGATGCGGTTTTTTCA
DNA 2: TGAAAAAACCGCATCATTTATGATAAGCTTCTGCTTATCAGTTAATGATGCGGTTTTTGAAAAAATAA
B2: attL58 (dsDNA)
DNA 1: TACAGAGCATTTAAGATTATGCGAGGAGAAGCTTATCATAAATGATGCGGTTTTTTCA
DNA 2: TGAAAAAACCGCATCATTTATGATAAGCTTCTCCTCGCATAATCTTAAATGCTCTGTA
B3: attB62 (dsDNA)
DNA 1: TACAGAGCATTTAAGATTATGCGAGGAGAGGCGTATCATAAGTAAAACTAAAAAATTCTGTA
DNA 2: TACAGAATTTTTTAGTTTTACTTATGATACGCCTCTCCTCGCATAATCTTAAATGCTCTGTA
B4: SCC half site 36 (dsDNA)
DNA 1: ATTTTTCAAAAACCGCATCATTAACTGATAAGCAGA
DNA 2: TCTGCTTATCAGTTAATGATGCGGTTTTTGAAAAAT
B5: attB ns half site 62 (dsDNA)
DNA 1: TACAGAGCATTTAAGATTATGCGAGGAGATGGCTGAGAACACCCCTTGTGAGGTACTTCATG
DNA 2: CATGAAGTACCTCACAAGGGGTGTTCTCAGCCATCTCCTCGCATAATCTTAAATGCTCTGTA
B6: attR72 (dsDNA)
DNA 1: TTAATTTTTCAAAAACCGCATCATTAACTGATAAGCAGAGGCGTATCATAAGTAAAACTAAAAAATTCTGTA
DNA 2: TACAGAATTTTTTAGTTTTACTTATGATACGCCTCTGCTTATCAGTTAATGATGCGGTTTTTGAAAAATTAA

Tests used:
Assay in all cases: EMSA
CcrB [1] = target: T1, CcrB (Staphylococcus aureus 923 (USA300, …, UniProt Q9XB94 1-542))
T1 sequence: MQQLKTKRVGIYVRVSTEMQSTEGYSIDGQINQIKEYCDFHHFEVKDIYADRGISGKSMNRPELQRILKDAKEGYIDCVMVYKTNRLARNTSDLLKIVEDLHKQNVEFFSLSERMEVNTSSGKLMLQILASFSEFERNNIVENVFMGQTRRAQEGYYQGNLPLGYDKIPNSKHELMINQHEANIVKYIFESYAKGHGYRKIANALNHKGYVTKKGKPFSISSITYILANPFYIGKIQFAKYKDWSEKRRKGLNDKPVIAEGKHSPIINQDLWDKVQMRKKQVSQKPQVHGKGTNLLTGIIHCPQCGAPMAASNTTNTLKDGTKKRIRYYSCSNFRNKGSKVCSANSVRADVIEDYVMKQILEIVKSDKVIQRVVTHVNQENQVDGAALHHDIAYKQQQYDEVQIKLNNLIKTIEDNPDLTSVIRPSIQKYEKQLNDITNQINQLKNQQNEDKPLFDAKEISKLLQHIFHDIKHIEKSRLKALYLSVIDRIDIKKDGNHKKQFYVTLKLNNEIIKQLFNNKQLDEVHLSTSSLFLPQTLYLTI

CcrA [2] = target: T2, CcrA (Staphylococcus aureus 923 (USA300, …, UniProt Q84BN8 1-449))
T2 sequence: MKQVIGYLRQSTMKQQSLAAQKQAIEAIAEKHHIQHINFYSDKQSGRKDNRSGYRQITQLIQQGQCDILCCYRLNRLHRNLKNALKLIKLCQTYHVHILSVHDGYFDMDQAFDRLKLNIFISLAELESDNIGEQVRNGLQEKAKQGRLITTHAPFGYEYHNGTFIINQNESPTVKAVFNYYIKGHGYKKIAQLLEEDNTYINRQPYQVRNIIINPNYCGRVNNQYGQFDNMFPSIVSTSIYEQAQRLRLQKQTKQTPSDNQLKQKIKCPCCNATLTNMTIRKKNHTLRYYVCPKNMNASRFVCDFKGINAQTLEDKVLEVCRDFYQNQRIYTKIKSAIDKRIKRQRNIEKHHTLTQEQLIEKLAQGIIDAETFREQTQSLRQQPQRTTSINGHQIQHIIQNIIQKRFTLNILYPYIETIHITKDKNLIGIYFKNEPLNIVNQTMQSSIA

CcrA [3] = target: T2, CcrA; remark: listed apart in the source
CcrA [4] = target: T2, CcrA; remark: listed apart in the source
CcrB [5] = target: T1, CcrB; remark: listed apart in the source
CcrA [6] = target: T2, CcrA; remark: listed apart in the source

Row | Binder | Kd (CcrB [1]) | binding result (CcrA [2]) | binding result (CcrA [3]) | also measured
1 | B1 | ~14.1 nM | no binding | – | –
2 | B2 | ~14.1 nM | – | binds | –
3 | B3 | ~14.1 nM | – | binds | –
4 | B4 | – | – | – | binding result (CcrA [4]): no binding; binding result (CcrB [5]): binds
5 | B5 | – | – | – | binding result (CcrA [6]): binds
6 | B6 | ~14.1 nM | no binding | – | –
